In PMC13480645 (PLOS Pathogens, 2026):

B1: eCC65.1-12 (antibody, V domains shown)
VH: EVQLVQSGAEVKKPGASVKVSCKASGYTFTSQYMHWVRQAPGQGLEWMGIIDPSGGGTSYAQKFRDRVSMTRDTPTSTVYMELRSLRSEDTAVYYCASLWFENPSWRDYWGQGTLVTVSS
VL: DVVMTQSPGTLSLSPGERATLSCRASQTVNKNYLAWYQQKPGQAPRLLIYHASSRATGIPDRFSGSGSGTDFTLTISRLEPEDFAVYYCQQYGASPPLFTFGPGTKLEIK
B2: eCC65.1-8 (antibody, V domains shown)
VH: VQLVQSGAEVKKPGASVKVSCKASGYEFTSQYMHWVRQAPGQGLEWMGIIDPSGGGASYAQKFRDRVSMTRDTPTSTVYMELRSLRSEDTAVYYCASLWFGNPSWRDYWGQGTLVTVSS
VL: VMTQSPGTLSLSPGERATLSCRASQTVNSNYLAWYQQKPGQAPRLLIYHASSRATGIPDRFSGSGSGTDFTLTISRLEPEDFAVYYCQQYQSSPPLFTFGPGTKLEIK
B3: eCC65.1-7 (antibody, V domains shown)
VH: VQLVQSGAEVKKPGASVKVSCKASGYSFTSQYMHWVRQAPGQGLEWMGIIDPSGGGTSYAQKFRDRVSMTRDTPTSTVYMELRSLRSEDTAVYYCASLWFENPSWRDYWGQGTLVTVSS
VL: VMTQSPGTLSLSPGERATLSCRASQTVNKNYLAWYQQKPGQAPRLLIYHASSRATGIPDRFSGSGSGTDFTLTISRLEPEDFAVYYCQQYGASPPLFTFGPGTKLEIK
B4: eCC65.1-13 (antibody, V domains shown)
VH: EVQLVQSGAEVKKPGASVKVSCKASGYTFTSQYMHWVRQAPGQGLEWMGIIDPSGGGTSYAQKFRDRVSMTRDTPTSTVYMELRSLRSEDTAVYYCASLWFENPSWRDYWGQGTLVTVSS
VL: VMTQSPGTLSLSPGERATLSCRASQTVNKNYLAWYQQKPGQAPRLLIYGASSRATGIPDRFSGSGSGTDFTLTISRLEPEDFAVYYCQQYGASPPLFTFGPGTKLEIK
B5: eCC65.1-5 (antibody, V domains shown)
VH: VQLVQSGAEVKKPGASVKVSCKATGYTFTSQYMHWVRQAPGQGLEWMGIIDPSGGGTSYAQKFRDRVSMTRDTPTSTVYMELRSLRSEDTAVYYCASIWFENPSWRDYWGQGTLVTVSS
VL: VMTQSPGTLSLSPGERATLSCRASQTVNKNYLAWYQQKPGQAPRLLIYGASSRATGIPDRFSGSGSGTDFTLTISRLEPEDFAVYYCQQYGSSPPLFTFGPGTKLEIK
B6: eCC65.1-2 (antibody, V domains shown)
VH: VQLVQSGAEVKKPGASVKVSCKATGYTFTSQYMHWVRQAPGQGLEWMGIIDPKGGGTSYAQKFRDRVSMTRDTPTSTVYMELRSLRSEDTAVYYCASLWFENPSWTDYWGQGTLVTVSS
VL: VMTQSPGTLSLSPGERATLSCRASQTVNKNYLAWYQQKPGQAPRLLIYHASSRATGIPDRFSGSGSGTDFTLTISRLEPEDFAVYYCQQYGSSPPLFTFGPGTKLEIK
B7: eCC65.1-4 (antibody, V domains shown)
VH: VQLVQSGAEVKKPGASVKVSCKASGYTFESQYMHWVRQAPGQGLEWMGIIDPKGGGTSYAQKFRDRVSMTRDTPTSTVYMELRSLRSEDTAVYYCASLWFETPSWRDYWGQGTLVTVSS
VL: VMTQSPGTLSLSPGERATLSCRASQTVNKNYLAWYQQKPGQAPRLLIYGASSRATGIPDRFSGSGSGTDFTLTISRLEPEDFAVYYCQTYGSSPPLFTFGPGTKLEIK
B8: eCC65.1-10 (antibody, V domains shown)
VH: VQLVQSGAEVKKPGASVKVSCKASGYDFTSQYMHWVRQAPGQGLEWMGIIDPSGGGTSYAQKFRDRVSMTRDTPTSTVYMELRSLRSEDTAVYYCASLWFENPSWSDYWGQGTLVTVSS
VL: VMTQSPGTLSLSPGERATLSCRASQTVNKNYLAWYQQKPGQAPRLLIYHASSRATGIPDRFSGSGSGTDFTLTISRLEPEDFAVYYCQQYGASPPLFTFGPGTKLEIK
B9: eCC65.1-1 (antibody, V domains shown)
VH: VQLVQSGAEVKKPGASVKVSCKASGYEFTSQYMHWVRQAPGQGLEWMGIIDPSGGGASYAQKFRDRVSMTRDTPTSTVYMELRSLRSEDTAVYYCASLWFGNPSWRDYWGQGTLVTVSS
VL: VMTQSPGTLSLSPGERATLSCRASQTVNSNYLAWYQQKPGQAPRLLIYHASSRATGIPDRFSGSGSGTDFTLTISRLEPEDFAVYYCQQYGASPPLFTFGPGTKLEIK
B10: eCC65.1-6 (antibody, V domains shown)
VH: EVQLVQSGAEVKKPGASVKVSCKASGYTFTSQYMHWVRQAPGQGLEWMGIIDPSGGGTSYAQKFRDRVSMTRDTPTSTVYMELRSLRSEDTAVYYCASLWFENPSWRDYWGQGTLVTVSS
VL: VMTQSPGTLSLSPGERATLSCRASQTVNKNYLAWYQQKPGQAPRLLIYHASSRATGIPDRFSGSGSGTDFTLTISRLEPEDFAVYYCQQYGSSPPLFTFGPGTKLEIK
B11: eCC65.1-3 (antibody, V domains shown)
VH: VQLVQSGAEVKKPGASVKVSCKASGYTFTSQYMHWVRQAPGQGLEWMGIIDPEGGGTSYAQKFRDRVSMTRDTPTSTVYMELRSLRSEDTAVYYCASLWFEQPSWRDYWGQGTLVTVSS
VL: VMTQSPGTLSLSPGERATLSCRASQTVNKNYLAWYQQKPGQAPRLLIYHASSRATGIPDRFSGSGSGTDFTLTISRLEPEDFAVYYCQQYGASPPLFTFGPGTKLEIK
B12: eCC65.1-11 (antibody, V domains shown)
VH: VQLVQSGAEVKKPGASVKVSCKASGYEFTSQYMHWVRQAPGQGLEWMGIIDPSGGGASYAQKFRDRVSMTRDTPTSTVYMELRSLRSEDTAVYYCASLWFGNPSWRDYWGQGTLVTVSS
VL: VMTQSPGTLSLSPGERATLSCRASSTVNSNYLAWYQQKPGQAPRLLIYHASSRATGIPDRFSGSGSGTDFTLTISRLEPEDFAVYYCQQYGASPPLFTFGPGTKLEIK
B13: eCC65.1-9 (antibody, V domains shown)
VH: VQLVQSGAEVKKPGASVKVSCKASGYDFTSQYMHWVRQAPGQGLEWMGIIDPEGGGTSYAQKFRDRVSMTRDTPTSTVYMELRSLRSEDTAVYYCASLWFEKPSWRDYWGQGTLVTVSS
VL: VMTQSPGTLSLSPGERATLSCRASQTVTSNYLAWYQQKPGQAPRLLIYHASSRATGIPDRFSGSGSGTDFTLTISRLEPEDFAVYYCQQYGSKPPLFTFGPGTKLEIK

Key:
[1] = target: T1, SARS-CoV-2 S-2P protein (SARS-CoV-2, ancestral (Wuhan-Hu-1) …, UniProt P0DTC2, stabilised); experiment: cell-based or functional assay
[2] = target: T1, SARS-CoV-2 S-2P protein; experiment: BLI; settings: both partners purified

| Binder | IC50 of neutralisation of SARS-CoV-2 pseudovirus (HeLa-hACE2 cells) [1] | Kd [2] | kon [2] |
| --- | --- | --- | --- |
| B1 | 5.77 µg/mL | < 0.001 nM | 273000 M⁻¹ s⁻¹ |
| B2 | 3.95 µg/mL | 0.945 nM | 258000 M⁻¹ s⁻¹ |
| B3 | 3.01 µg/mL | 0.157 nM | 270000 M⁻¹ s⁻¹ |
| B4 | 2.41 µg/mL | 0.0819 nM | 256000 M⁻¹ s⁻¹ |
| B5 | 1.63 µg/mL | < 0.001 nM | 286000 M⁻¹ s⁻¹ |
| B6 | 2.05 µg/mL | < 0.001 nM | 283000 M⁻¹ s⁻¹ |
| B7 | 1.84 µg/mL | 0.0136 nM | 287000 M⁻¹ s⁻¹ |
| B8 | 1.86 µg/mL | < 0.001 nM | 278000 M⁻¹ s⁻¹ |
| B9 | 5.79 µg/mL | 0.843 nM | 236000 M⁻¹ s⁻¹ |
| B10 | 2.98 µg/mL | 0.0472 nM | 261000 M⁻¹ s⁻¹ |
| B11 | 4.67 µg/mL | < 0.001 nM | 289000 M⁻¹ s⁻¹ |
| B12 | 5.26 µg/mL | 0.801 nM | 249000 M⁻¹ s⁻¹ |
| B13 | 2.6 µg/mL | 0.0102 nM | 306000 M⁻¹ s⁻¹ |
